Measured values taken from PMC8205485.

How the values were obtained:
[1] = test system: T1, XssQ (Synechocystis sp. PCC 6803), ORF:81bb7109; test: competition; details: EMSA, 30 min at room temperature; buffer, salt and pH not given (refers to Hirose 2010, Maeda 2014, Midorikawa 2009)
T1 sequence: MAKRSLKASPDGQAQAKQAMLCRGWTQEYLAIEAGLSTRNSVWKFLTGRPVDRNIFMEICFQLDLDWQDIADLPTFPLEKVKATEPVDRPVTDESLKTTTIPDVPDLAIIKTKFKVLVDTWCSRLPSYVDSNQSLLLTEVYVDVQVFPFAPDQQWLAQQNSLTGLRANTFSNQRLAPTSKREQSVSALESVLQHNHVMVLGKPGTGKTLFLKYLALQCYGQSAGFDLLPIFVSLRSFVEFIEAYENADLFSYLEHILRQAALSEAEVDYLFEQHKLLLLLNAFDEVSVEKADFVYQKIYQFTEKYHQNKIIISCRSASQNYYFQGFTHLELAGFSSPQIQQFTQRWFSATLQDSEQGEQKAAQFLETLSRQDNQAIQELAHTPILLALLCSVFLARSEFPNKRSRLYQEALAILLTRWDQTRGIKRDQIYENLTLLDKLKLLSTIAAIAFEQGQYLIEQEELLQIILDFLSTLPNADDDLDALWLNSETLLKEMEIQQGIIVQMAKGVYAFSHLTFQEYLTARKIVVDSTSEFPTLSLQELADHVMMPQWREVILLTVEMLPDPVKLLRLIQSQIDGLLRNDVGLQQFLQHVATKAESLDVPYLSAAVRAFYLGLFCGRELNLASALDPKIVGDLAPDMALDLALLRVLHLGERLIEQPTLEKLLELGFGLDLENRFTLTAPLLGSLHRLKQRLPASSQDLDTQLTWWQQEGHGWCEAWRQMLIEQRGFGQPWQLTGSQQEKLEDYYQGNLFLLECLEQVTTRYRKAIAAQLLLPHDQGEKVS

[2] = test system: T1, XssQ (Synechocystis sp. PCC 6803), ORF:81bb7109; test: EMSA; details: 30 min at room temperature, buffer, salt and pH not given (refers to Hirose 2010, Maeda 2014, Midorikawa 2009)

ATCTTTAAAGCCCCAGTCCCGATCGCCAGCGGTTAAACAGGTAAAAAAACAGAAGCAGAAATCTAGTGAGCAGGGGAAACTCAAAACCAAGCCGGGGCGCTCAAAGTCAGGGTCAGGCAAAAGGTCTAAAGTTAGACGCAAAGTTGTACATAGGGCAGGCACGAAATCAGACAGCGATCCATCAAGCTAAGAACAGGTTGCAATTGCCCATCTCACGATCGCCGTCACGCCCCCATGAACACTTCTTTCCT (double strand) [xssE upstream probe / native competitor]
binding [1]: binds | binding [2]: binds
